US20150219657A1
Square brackets hold non-standard residues; d marks the D form. Ends that are not written are not given here. S1 = acylated D-Pra whose alkyne is clicked through a 1,2,3-triazole to acylated azidolysine-PEG2-biotin; dPra = C#CC[C@@H](N)C(=O)O

Experiments:
[1] = molecular target: Active Akt2 (with N terminal His6 tag) (human) (UniProt P31751); experiment: single-component ELISA, mono-L as detection agent (FIG. 23A, given there as EC50)
[2] = molecular target: Active Akt2 (with N terminal His6 tag) (human) (UniProt P31751); experiment: SPR, Biacore T100, biotinylated N-tL on SA chip, Akt2 protein as analyte, 10° C., 1:1 binding model
[3] = molecular target: Active Akt2 (with N terminal His6 tag) (human) (UniProt P31751); experiment: summary sentence of Example 1; method not given
[4] = molecular target: Active Akt2 (with N terminal His6 tag) (human) (UniProt P31751); experiment: single component ELISA, N-tL as surface-localized capture agent (FIG. 23A)
[5] = molecular target: Active Akt2 (with N terminal His6 tag) (human) (UniProt P31751); experiment: single-component ELISA, bi-L as detection agent (FIG. 23A, given there as EC50)

Sequence of Active Akt2 (with N terminal His6 tag) (human) (P31751 other isoform, or with tags, fused parts or gaps): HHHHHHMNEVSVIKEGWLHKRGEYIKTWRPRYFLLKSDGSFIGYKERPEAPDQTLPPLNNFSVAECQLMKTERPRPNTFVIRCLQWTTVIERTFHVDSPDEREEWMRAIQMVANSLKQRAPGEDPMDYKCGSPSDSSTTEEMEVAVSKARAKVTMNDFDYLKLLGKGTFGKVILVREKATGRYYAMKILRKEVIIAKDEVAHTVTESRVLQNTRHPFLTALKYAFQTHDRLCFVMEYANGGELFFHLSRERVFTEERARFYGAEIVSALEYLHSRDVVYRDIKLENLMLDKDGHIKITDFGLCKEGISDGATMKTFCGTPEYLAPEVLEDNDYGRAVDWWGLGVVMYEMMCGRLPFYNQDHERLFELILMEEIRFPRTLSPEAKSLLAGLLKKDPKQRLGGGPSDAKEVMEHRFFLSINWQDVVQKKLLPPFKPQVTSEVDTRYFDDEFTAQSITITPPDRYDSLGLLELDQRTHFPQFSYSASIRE

B1: mono-L (designed binder)
peptide: S1-[dW][dK][dV][dK][dL]-NH2
- affinity [1]: 3 µM

B2: N-tL (designed binder)
peptide 1: [dW][dK][dV][dK][dL]
peptide 2: [dH][dN]G[dY][dF]
peptide 3: Ac-[dPra][dY][dY][dR][dF]G-NH2
modifications: triazole (positions not given here); not fully specified (N-terminus, bridges); also: C-terminal D-Pra clicked via triazole to L-azidolysine of S4, arm not given here, N-terminus coupled to S4 (azidolysine-PEG2-biotin)
- Kd [2]: 25 nM
- affinity [3]: 20 nM
- EC50 [4]: 19 nM

B3: bi-L (designed binder)
peptide 1: [dW][dK][dV][dK][dL]-NH2
peptide 2: [dH][dN]G[dY][dF][dPra]
modifications: also: arms joined via S3 linker (azide, PEG2-biotin) coupled to the wkvkl N-terminus, biotin-PEG2 label, triazole to a chain's N/C-terminus via S3 linker
- affinity [5]: 1 µM
